Consider 3 sequences from PMC4176358.

This data set addresses T1, VqsMt (truncated VqsM) (Pseudomonas aeruginosa PAO1) (UniProt Q9I1P2).
T1 sequence: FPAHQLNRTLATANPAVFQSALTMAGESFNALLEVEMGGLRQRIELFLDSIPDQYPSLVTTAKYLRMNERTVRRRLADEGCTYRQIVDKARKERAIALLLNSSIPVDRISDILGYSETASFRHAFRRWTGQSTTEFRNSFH
Description: EMSA. The following applies: 20 mM Tris-HCl pH 7.4, 50 mM KCl, 5 mM MgCl2, 10% glycerol, 3 ug/ml sheared salmon sperm DNA; room temperature 20 min; DNA 40-50 nM (footprint DNase I at 25 C). Background: A gel shift assay detects complexes by their altered migration in electrophoresis.
On to “TAAAGATGGACGCTGGTTTGCGCAGCCCATGCACTGTCCGCCGCTGTCGCACCGATCGTCGTCAGGATCGATAACGCCAGTGCACAAACTTTTTTCATTGGATTTCCTTTCCGAAACGAAACAAGTTGGATTTTGCACCTACCAGAACTGGTAGTTCTGACCTGTGGCTATCTTCGAAGGCATCGATATTATGCACATTGGAACTCTTCATGACATAACGCCGAGTGACT (double strand) [vqsR promoter]”, for which the binding result was “no binding”. With “AAAAGGCGGCATCCCTACCCTGATACTCCTGGGCCCTCTCAGTCGGAGGACATACCAGCACACACATGAGGGGGAAGACTAAAGGAGGATGAACGGCAGGCAACCTGCCAGATCTGGTAGGGCGCGCCGACCGGCGCGCCCTGCGCTTCAGATGAGACCCAGCGCCGCGGCGTAGGCGGCAGCCAGCGTCTTGTTCGGCGCGTCGAACTTCTTCTGGATGTTC (double strand) [rhlI promoter]” the entry was “no binding”; with “AAAAAGCCTCCGTCATTCCTCATTGCAGTAAGCCCTGATCGATAAAATGCATCACAGCAGAATTGGCCCGGGGTATGACGCTGTCAAGCGCGCAGCCTTGCCGATACGGCAAAATCATGGCAACCCTATCTGTTATGCCAGCACCGTTCAGGACGCAGCCTTCAGCCATCGAGCATCCCCCTCCCTATGACAACGTTCGACCACCTGGGCCGCTTTACCGCAAGCGATACTGTGCGGTTGTGACAATTCCATGAAACGC (double strand) [rhlR promoter]”, “no binding”.
